Data: the supplement of paper PMC9112550, “Optimization of the antimicrobial peptide Bac7 by deep mutational scanning” (BMC Biology, 2022)
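Also: peptides expressed intracellularly from a pBAD plasmid library in pooled LB shake-flask culture, induced with 0.3% L-arabinose, DNA abundance read by NGS, three biological replicates, DESeq2 with apeglm shrinkage.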

Each sequence was assayed on Escherichia coli TOP10 (assay: shrunken log2 fold change of peptide-encoding DNA abundance (4.5 h post-induction vs induction); higher = less antimicrobial activity (less host growth inhibition)). Details: time post-induction: 4.5 h; library: site-saturation at positions 5, 18, 19, 20.
In the case of RRIRTRPPRLPRPRPRPNQTPRP, the “shrunken log2 fold change” value is reported as -0.155.
With RRIRQRPPRLPRPRPRPIRTPRP the “shrunken log2 fold change” value was -0.0597.
RRIRQRPPRLPRPRPRPGWRPRP was tested, and the “shrunken log2 fold change” value was 2.71.
RRIRPRPPRLPRPRPRPIKIPRP was tested, and the “shrunken log2 fold change” value was -0.319.
In the case of RRIRPRPPRLPRPRPRPPCHPRP, the “shrunken log2 fold change” value is reported as 0.0684.
RRIRDRPPRLPRPRPRPEDFPRP was tested, and the “shrunken log2 fold change” value was 0.427.
RRIRLRPPRLPRPRPRPQFYPRP was tested, and the “shrunken log2 fold change” value was -0.727.
In the case of RRIRARPPRLPRPRPRPYRSPRP, the “shrunken log2 fold change” value is reported as -0.51.
With RRIRGRPPRLPRPRPRPGMMPRP the “shrunken log2 fold change” value was -0.0297.
For RRIRDRPPRLPRPRPRPGQCPRP, the “shrunken log2 fold change” value was 0.131.
RRIRERPPRLPRPRPRPHHIPRP was tested, and the “shrunken log2 fold change” value was -0.0669.
In the case of RRIRCRPPRLPRPRPRPAQDPRP, the “shrunken log2 fold change” value is reported as 0.289.
In the case of RRIRSRPPRLPRPRPRPTDLPRP, the “shrunken log2 fold change” value is reported as -0.464.
RRIRVRPPRLPRPRPRPKCYPRP was tested, and the “shrunken log2 fold change” value was 0.0107.
RRIRIRPPRLPRPRPRPCPQPRP was tested, and the “shrunken log2 fold change” value was -0.458.
With RRIRNRPPRLPRPRPRPKTTPRP the “shrunken log2 fold change” value was 0.118.
With RRIRTRPPRLPRPRPRPHFMPRP the “shrunken log2 fold change” value was -0.339.
RRIRVRPPRLPRPRPRPLSDPRP was tested, and the “shrunken log2 fold change” value was 0.0263.
With RRIRYRPPRLPRPRPRPFKAPRP the “shrunken log2 fold change” value was -0.55.
With RRIRGRPPRLPRPRPRPDKKPRP the “shrunken log2 fold change” value was 0.878.
In the case of RRIRARPPRLPRPRPRPIKWPRP, the “shrunken log2 fold change” value is reported as 0.235.
RRIRWRPPRLPRPRPRPDLRPRP was tested, and the “shrunken log2 fold change” value was -0.00728.
RRIRRRPPRLPRPRPRPQHQPRP was tested, and the “shrunken log2 fold change” value was 0.246.
RRIRQRPPRLPRPRPRPMTRPRP was tested, and the “shrunken log2 fold change” value was 0.0107.
For RRIRERPPRLPRPRPRPGNQPRP, the “shrunken log2 fold change” value was -0.00399.
RRIRPRPPRLPRPRPRPHHGPRP was tested, and the “shrunken log2 fold change” value was 0.0245.
In the case of RRIRYRPPRLPRPRPRPAMMPRP, the “shrunken log2 fold change” value is reported as 0.0997.
In the case of RRIRDRPPRLPRPRPRPRSNPRP, the “shrunken log2 fold change” value is reported as 0.148.
RRIRERPPRLPRPRPRPSQFPRP was tested, and the “shrunken log2 fold change” value was -0.474.
RRIRHRPPRLPRPRPRPGIDPRP was tested, and the “shrunken log2 fold change” value was -0.0302.
With RRIRLRPPRLPRPRPRPKHRPRP the “shrunken log2 fold change” value was -0.112.
In the case of RRIRWRPPRLPRPRPRPDYNPRP, the “shrunken log2 fold change” value is reported as -0.288.
RRIRFRPPRLPRPRPRPGSAPRP was tested, and the “shrunken log2 fold change” value was 0.182.
RRIRCRPPRLPRPRPRPTHIPRP was tested, and the “shrunken log2 fold change” value was -0.326.
In the case of RRIRTRPPRLPRPRPRPERHPRP, the “shrunken log2 fold change” value is reported as -0.0333.
With RRIRCRPPRLPRPRPRPAKSPRP the “shrunken log2 fold change” value was 0.448.
In the case of RRIRARPPRLPRPRPRPDWPPRP, the “shrunken log2 fold change” value is reported as 0.98.
RRIRQRPPRLPRPRPRPVKFPRP was tested, and the “shrunken log2 fold change” value was -0.0717.
RRIRKRPPRLPRPRPRPDEGPRP was tested, and the “shrunken log2 fold change” value was -0.01.
RRIRFRPPRLPRPRPRPRVIPRP was tested, and the “shrunken log2 fold change” value was -0.0914.
RRIRERPPRLPRPRPRPRQSPRP was tested, and the “shrunken log2 fold change” value was -0.0972.
In the case of RRIRHRPPRLPRPRPRPNPGPRP, the “shrunken log2 fold change” value is reported as 0.111.
For RRIRWRPPRLPRPRPRPHAMPRP, the “shrunken log2 fold change” value was 0.00797.
With RRIRQRPPRLPRPRPRPDWCPRP the “shrunken log2 fold change” value was -0.229.
In the case of RRIRLRPPRLPRPRPRPCVPPRP, the “shrunken log2 fold change” value is reported as -0.208.
With RRIRHRPPRLPRPRPRPWCLPRP the “shrunken log2 fold change” value was -1.67.
For RRIRFRPPRLPRPRPRPIDSPRP, the “shrunken log2 fold change” value was -0.401.
With RRIRFRPPRLPRPRPRPATHPRP the “shrunken log2 fold change” value was 0.167.
With RRIRCRPPRLPRPRPRPTKNPRP the “shrunken log2 fold change” value was 0.142.
In the case of RRIRHRPPRLPRPRPRPSEMPRP, the “shrunken log2 fold change” value is reported as -0.0714.
For RRIRERPPRLPRPRPRPMDDPRP, the “shrunken log2 fold change” value was -0.015.
RRIRHRPPRLPRPRPRPRRNPRP was tested, and the “shrunken log2 fold change” value was -0.104.
With RRIRDRPPRLPRPRPRPFIIPRP the “shrunken log2 fold change” value was -0.348.
In the case of RRIRRRPPRLPRPRPRPSELPRP, the “shrunken log2 fold change” value is reported as 0.0695.
In the case of RRIRVRPPRLPRPRPRPFGCPRP, the “shrunken log2 fold change” value is reported as -0.19.
In the case of RRIRTRPPRLPRPRPRPSMSPRP, the “shrunken log2 fold change” value is reported as -0.655.
RRIRNRPPRLPRPRPRPELIPRP was tested, and the “shrunken log2 fold change” value was -0.0327.
In the case of RRIRLRPPRLPRPRPRPPSVPRP, the “shrunken log2 fold change” value is reported as -0.0845.
For RRIRWRPPRLPRPRPRPGNAPRP, the “shrunken log2 fold change” value was 0.146.
For RRIRSRPPRLPRPRPRPAWYPRP, the “shrunken log2 fold change” value was -0.3.
RRIRTRPPRLPRPRPRPPCEPRP was tested, and the “shrunken log2 fold change” value was 0.0977.
In the case of RRIRPRPPRLPRPRPRPCGFPRP, the “shrunken log2 fold change” value is reported as 0.183.
With RRIRSRPPRLPRPRPRPVDNPRP the “shrunken log2 fold change” value was -0.493.
For RRIRNRPPRLPRPRPRPGDIPRP, the “shrunken log2 fold change” value was 0.0338.
RRIRSRPPRLPRPRPRPTNAPRP was tested, and the “shrunken log2 fold change” value was -0.0746.
For RRIRWRPPRLPRPRPRPVCSPRP, the “shrunken log2 fold change” value was 0.0102.
RRIRMRPPRLPRPRPRPMGGPRP was tested, and the “shrunken log2 fold change” value was 0.131.
In the case of RRIRLRPPRLPRPRPRPDPYPRP, the “shrunken log2 fold change” value is reported as 0.0541.
In the case of RRIRWRPPRLPRPRPRPTNKPRP, the “shrunken log2 fold change” value is reported as -0.195.
In the case of RRIRNRPPRLPRPRPRPPQLPRP, the “shrunken log2 fold change” value is reported as 0.131.
In the case of RRIRRRPPRLPRPRPRPTWYPRP, the “shrunken log2 fold change” value is reported as 0.0312.
For RRIRLRPPRLPRPRPRPPFKPRP, the “shrunken log2 fold change” value was 0.0605.
With RRIRARPPRLPRPRPRPPKMPRP the “shrunken log2 fold change” value was 0.298.
In the case of RRIRNRPPRLPRPRPRPFIRPRP, the “shrunken log2 fold change” value is reported as -0.111.
RRIRARPPRLPRPRPRPETCPRP was tested, and the “shrunken log2 fold change” value was 0.331.
